According to paper PMC8866119 (Nature, 2021):

Target: SARS-CoV-2 Omicron (B.1.1.529) RBD (SARS-CoV-2 Omicron B.1.1.529 (BA.1), strain)

Binder	binding result
BD55-5339 (antibody, V domains shown) VH: EVQLVESGEGLVQPGGSLRISCAASGFTFSNYPMHWVRQAPGQGLESVSSITSNGDGTFYANSVKGRFTISRDNSKNTLYLQMGSLRTEDTALYFCAREVAEQLDCYFDLWGRGTLVTVSS VL: DIQMTQSPSSLSASVGDRVTITCRASQSIRTYLNWYQHKPGKAPKLLIFAASSLQSGVPSRFSGSGSGTDFSLTISSLQPEDFATYYCQQSYITPPITFGQGTRLEIK	binds
BD-692 (antibody, V domains shown) VH: EVQLVESGGGLVQPGGSLRLSCAASGFTFSSHGMNWVRQAPGKGLEWVSYISSRDSTIYYADSVKGRFTISRDNAKNSLYLQMNSLRDEDTAVYYCARDNSDYDYSFGAYYFDYWGQGTLVTVSS VL: EIVLTQSPATLSLSPGERATVSCRASQSVSNFLAWYQQKPGQAPRLLIHDASNRATGIPARFSGSGSGTDFTLTISSLEPEDFAVYYCQQRRNWPPVTFGQGTRLEIK	binds
COVA1-16 (antibody, V domains shown) VH: QVQLVQSGAEVKKPGASVKVSCKASGYTFTSYYMHWVRQAPGQGLEWMGIINSSGGSTSYAQKFQGRVTMTRDTSTSTVYMELSSLRSEDTAVYYCARPPRNYYDRSGYYQRAEYFQHWGQGTLVTVSS VL: DIQLTQSPSSLSASVGDRVTITCQASQDISNYLNWYQQRPGKAPKLLIYDASNLETGVPSRFSGSGSGTDFTFTISSLQPEDIATYYCQQYDNPPLTFGGGTKLEIK	binds
BD-708 (antibody, V domains shown) VH: QVQLVESGGGVVQPGRSLRLSCAASGFTLSNYAMHWVRQAPGTGLEWVAVISDDGSIKFYADSVKGRFTISRDNSKNTLYLQMNSLRAEDTAVYYCARDGDDSSGYFFDYWGQGTLVTVSS VL: DIQMTQSPSSLSASVGDRVTITCRASQGINNFLAWYQQKPGKAPKLLLYSASRLESGVPSRFSGSGSGTDYTLTISSLQPEDFATYYCQQYYSTLALTFGGGTKVEIK	binds
COV2-2828 (antibody, V domains shown) VH: EVQLVESGGGLVKPGGSLRLSCAASGFTFRDYSMNWVRQAPGKGLEWVSSISSGGSYIYYADSVKGRFTISRDNAKNSLYLQMNSLRAEDTAVYYCARGGSILWWLIDYWGQGTLVTVSS VL: NFMLTQPHSVSESPGKTVTISCTGSSGSIASNYVQWYQQRPGSAPTTVIYEDNQRPSGVPDRFSGSIDSSSNSASLTISGLKTEDEADYYCQSYDSTSRVVFGGGTKLTVL	binds
DH1045 (antibody, V domains shown) VH: QLQLQESGPGLVKPSETLSLTCTVSGGSISSSGYYWGWIRQPPGKGLEWIGTIYYGGSTYYSPSLKSRVTISVDTSKNQFSLKLSSVTAADTAVYYCASQQWLRGNFDYWGQGTLVTVSS VL: NFMLTQPHSVSESPGKTVTISCTGSSGSIASNYVQWYQQRPGSAPTTVIYEDNQRPSGVPDRFSGSIDSSSNSASLTISGLKTEDEADYYCQSYDSSTYWVFGGGTKLTVL	binds
BD55-5267 (antibody, V domains shown) VH: QVQLQESGPGLVKPSGTLSLTCAVSGGSISSSNWWSWVRQPPGKGLEWIGEIYHSGSTNYNPSLKSRVTISVDKSKNKFSLKLSSVTAADTAVYFCARAGWIESGYDAFVGYFDYWGQGTLVTVSS VL: DIQMTQSPSSLSASVGDRVTITCRASQGISSSLAWYQQKPGKAPDLLLYAASGLESGVPSRFSGSGSGTDFTLSISSLQPEDFATYYCQQYYSPPRTFGQGTKLEIK	binds
DH1047 (antibody, V domains shown) VH: QVQLVQSGAEVKKPGASVQVSCQASANTFTNHYIHWVRQAPGQGLEWMGIIYPTGGNTIYAQGFQGRVTMTRDTSLNTIYLELSSLRSEDTAVYYCARDVRVDDSWSGYDLLSGGTYFDYWGQGTLVTVSS VL: not shown	binds
S304 (antibody, V domains shown) VH: EVQLVESGGGLVQPGGSLRLSCAASGFTFSSYDMHWVRQTTGKGLEWVSTIGTAGDTYYPDSVKGRFTISREDAKNSLYLQMNSLRAGDTAVYYCARGDSSGYYYYFDYWGQGTLLTVSS VL: DIEMTQSPSSLSAAVGDRVTITCRASQSIGSYLNWYQQKPGKAPKLLIYAASSLQSGVPSRFSGSGSGTDFTLTISSLQPEDFAIYYCQQSYVSPTYTFGPGTKVDIK	binds
BD55-3500 (antibody, V domains shown) VH: QVQLVESGGGVVQPGRSLRLSCAASGFIFSRYDIHWVRQTPGKGLEWVALIRYDGSDKYYADSVKGRFTISRDNSKNTLYLQMNSLRVEDTAVYYCAKEGIQGYSGYDYFWTGFYFDYWGQGTLVTVSS VL: not shown	binds
BD55-5226 (antibody, V domains shown) VH: EVQLVESGGGLVKPGGSLRLSCAASGFTFSSYSMNWVRQAPGKGLEWVSSISMTSSYRHYADSVRGRFTISRDNANNSLFLQMNSLRAEDTAVYFCARDSNLRTGDANDYWGQGTLVTVSS VL: not shown	binds
BD55-3304 (antibody, V domains shown) VH: QVQLVESGGGVVQPERSLRLSCAASGFIFSNYGMHWVRQAPGKGLEWVALIWYDGSNRYYADSVKGRFTISRDNSRNTLYLQMNSLRAEDTAMYYCAKSALRGYSGYDFFSRVSDEYYFDNWGQGTLVTVSS VL: DIVMTQSPDSLAVSLGERATISCKSSQSVLYSSNNQNYLAWYQQKPGQPPKLLIKWASTRESGVPDRFSGSGSGTDFTLTITSLQAEDVAVYYCQQYFDTPHFGQGTKLEIK	binds
BD55-5300 (antibody, V domains shown) VH: QVQLVQSGAEVKKPGSSVKVSCKASGGSFTSHAVSWVRQAPGQGLEWMGVSIPLFGTAKYAQKFQGRVTITADESTSTVYMSLSNLRSGDTAVYYCARLFPNGTPTDLTAPSDYWGQGTLVTVSS VL: DIQMTQSPSSLSASVGDRVTITCQASQDIGNYLNWYQQKPGKAPKLLIYDASHLETGVPSRFSGSASGTDFTLTISSLQPDDIATYYCQRYDDVPTYTFGQGTKLEIK	binds
BD55-5259 (antibody, V domains shown) VH: QITLKESGPTLVKPTQTLTLTCTFSGFSLTMPEVGVAWVRQPPGKALEWLALIYGDDNKRYSPSLESRLTITKDSSKNQVVLTMTNLDSVDTATYYCARRKFLWDSDPVAFDYWGLGTLVIVSS VL: DIVMTQTPLSLPVTLGQPASISCRSSQSLVHIDGNIYLSWLQQRPGQPPRLLIYKISNRFSGVPDRFSGSGSGTDFTLKISRVEAEDVGVYYCMQATQFPHEMYTFGQGTKLEIR	binds
COV2-2103 (antibody, V domains shown) VH: EVQLVESGGGLVQPGGSLRLSCAASGFTFSRHWMTWVRQAPGKGLEWVANIKQDGSEKYYVDSVKGRLTISRDNAKNSLYLQMNSLRAEDTAVYYCARLGFYYGGADYWGQGTLVTVSS VL: NFMLTQPHSVSESPGKTVTISCTGSSGSIASNYVQWYQQRPGSAPTTVISEDNQRPSGVPDRFSGSIDSSSNSASLTISGLKTEDEADYYCQSYDGINRAWVFGGGTKLTVL	binds
BD55-1237 (antibody, V domains shown) VH: QVQLVESGGGVVQPGRSLRLSCATSDFTSNTYGIHWVRQAPGKGLEWVAVIWSDGSHEYYADSVKGRFTISRDNSKNTVYLQMASLRPEDTALYYCAKSPWLRGSFDVWGQGTVVPVSS VL: NFLLTQPHSVSESPGKTVTISCSGSSGYIASNYVQWYQQRPGSAPIVVMYEDNQRPSGVPDRFSGSIDSSSNSASLTISGLKTEDEADYYCQSYDSDNRAWVFGGGTKLTVL	binds
BD55-3372 (antibody, V domains shown) VH: EVHLVESGGGLVKPGGSLRLSCAASGFTFSNYAMNWVRQAPGKGLQWVSSITGSSSFIFYADSVKGRFTIVRDNAQNSLYLQMNSLRDEDTAVYYCARERDDYDTRLDWGQGTLVTVSS VL: QPMLTQPPSVSGAPGQTVTISCVGSSSNIGAGYEVHWYQQLPGTAPKRLLSGNSDRPSGVPDRFSGSKSGTSASLAITGLQADDEADYYCQSYDSSLSLSAVVFGGGTKLTVL	binds
BD-801 (antibody, V domains shown) VH: DVQLVESGGGLVQPGGSRRLSCAASGFMFSSYWMNWVRQAPGKGLEWVASIKEDGSEKYYVDSVKGRFTISRDNAKNSLFLQMNSLRAEDTAVYYCARKCRGYYDRSGYYYKCAFDIWGQGTMVTVSS VL: PYVLTQPPSVSVAPGKTARITCGGNNLGTNSVHWYQQKPGQAPVLVMYYDSDRPSGIPERFSGSNSGNTATLTISRVDAGDEADYYCQVWDSSSDHWVFGGGTKLTVL	binds
